# Data: patent US20240091318A1, “COMBINATION THERAPY COMPRISING LONG ACTING GLP-1/GLUCAGON AND NPY2 RECEPTOR AGONISTS” (Boehringer Ingelheim International GmbH, priority 2022, published 2024)
# Numbered stars: 1 amine (or outer) side, 2 acyl side, 3 side chain; on linkers, the order of the positions; unused ones are H or OH. Side chains are listed from the residue outwards. * marks the point of attachment. C18 diacid = O=C(O)CCCCCCCCCCCCCCCCC(=O)*; γGlu = O=C(O)[C@H](CCC(=O)[*:2])N[*:1]; Isovaleryl = CC(C)CC(=O)*; AEEA = NCCOCCOCC(=O)O; Ahx = NCCCCCC(=O)O
# T1: human NPY2 receptor (human, UniProt P49146)
# T1 sequence: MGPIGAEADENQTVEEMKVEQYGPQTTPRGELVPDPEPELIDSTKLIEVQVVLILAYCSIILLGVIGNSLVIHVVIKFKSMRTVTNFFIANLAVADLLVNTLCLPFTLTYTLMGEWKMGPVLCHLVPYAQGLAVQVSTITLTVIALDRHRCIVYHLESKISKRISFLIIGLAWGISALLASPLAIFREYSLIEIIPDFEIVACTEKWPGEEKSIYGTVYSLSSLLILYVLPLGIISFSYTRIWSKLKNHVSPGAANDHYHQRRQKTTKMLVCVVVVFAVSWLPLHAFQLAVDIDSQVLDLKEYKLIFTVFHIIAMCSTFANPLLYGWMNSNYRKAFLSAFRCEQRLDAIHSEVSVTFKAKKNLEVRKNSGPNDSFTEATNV
# B1: Reference 3 (peptide)
# peptide: Isovaleryl-RPEKPEEDASPEELQRYYVSLRHYYNWLTRQRY-NH2
# modifications: not fully specified (residue 4); printed as iVal-RPEK(C18DA-gGlu-OEG-OEG)PEEDASPEELQRYYVSLRHYYNWLTRQRY-NH2
# B2: Compound F (peptide)
# peptide: Isovaleryl-APEK([AEEA-AEEA-γGlu-C18 diacid])PEADATPEELQRYYVSLRHYYNWLTRQRY-NH2
# SMILES: CC(C)CC(=O)N[C@@H](C)C(=O)N1CCC[C@H]1C(=O)N[C@@H](CCC(=O)O)C(=O)N[C@@H](CCCCNC(=O)COCCOCCNC(=O)COCCOCCNC(=O)CC[C@H](NC(=O)CCCCCCCCCCCCCCCCC(=O)O)C(=O)O)C(=O)N1CCC[C@H]1C(=O)N[C@@H](CCC(=O)O)C(=O)N[C@@H](C)C(=O)N[C@@H](CC(=O)O)C(=O)N[C@@H](C)C(=O)N[C@H](C(=O)N1CCC[C@H]1C(=O)N[C@@H](CCC(=O)O)C(=O)N[C@@H](CCC(=O)O)C(=O)N[C@@H](CC(C)C)C(=O)N[C@@H](CCC(N)=O)C(=O)N[C@@H](CCCNC(=N)N)C(=O)N[C@@H](Cc1ccc(O)cc1)C(=O)N[C@@H](Cc1ccc(O)cc1)C(=O)N[C@H](C(=O)N[C@@H](CO)C(=O)N[C@@H](CC(C)C)C(=O)N[C@@H](CCCNC(=N)N)C(=O)N[C@@H](Cc1c[nH]cn1)C(=O)N[C@@H](Cc1ccc(O)cc1)C(=O)N[C@@H](Cc1ccc(O)cc1)C(=O)N[C@@H](CC(N)=O)C(=O)N[C@@H](Cc1c[nH]c2ccccc12)C(=O)N[C@@H](CC(C)C)C(=O)N[C@H](C(=O)N[C@@H](CCCNC(=N)N)C(=O)N[C@@H](CCC(N)=O)C(=O)N[C@@H](CCCNC(=N)N)C(=O)N[C@@H](Cc1ccc(O)cc1)C(N)=O)[C@@H](C)O)C(C)C)[C@@H](C)O
# B3: Compound C (peptide)
# peptide: Isovaleryl-APAK([AEEA-AEEA-γGlu-C18 diacid])PEEEASPEELQRYYVSLRHYYNWLTRQRY-NH2
# SMILES: CC(C)CC(=O)N[C@@H](C)C(=O)N1CCC[C@H]1C(=O)N[C@@H](C)C(=O)N[C@@H](CCCCNC(=O)COCCOCCNC(=O)COCCOCCNC(=O)CC[C@H](NC(=O)CCCCCCCCCCCCCCCCC(=O)O)C(=O)O)C(=O)N1CCC[C@H]1C(=O)N[C@@H](CCC(=O)O)C(=O)N[C@@H](CCC(=O)O)C(=O)N[C@@H](CCC(=O)O)C(=O)N[C@@H](C)C(=O)N[C@@H](CO)C(=O)N1CCC[C@H]1C(=O)N[C@@H](CCC(=O)O)C(=O)N[C@@H](CCC(=O)O)C(=O)N[C@@H](CC(C)C)C(=O)N[C@@H](CCC(N)=O)C(=O)N[C@@H](CCCNC(=N)N)C(=O)N[C@@H](Cc1ccc(O)cc1)C(=O)N[C@@H](Cc1ccc(O)cc1)C(=O)N[C@H](C(=O)N[C@@H](CO)C(=O)N[C@@H](CC(C)C)C(=O)N[C@@H](CCCNC(=N)N)C(=O)N[C@@H](Cc1c[nH]cn1)C(=O)N[C@@H](Cc1ccc(O)cc1)C(=O)N[C@@H](Cc1ccc(O)cc1)C(=O)N[C@@H](CC(N)=O)C(=O)N[C@@H](Cc1c[nH]c2ccccc12)C(=O)N[C@@H](CC(C)C)C(=O)N[C@H](C(=O)N[C@@H](CCCNC(=N)N)C(=O)N[C@@H](CCC(N)=O)C(=O)N[C@@H](CCCNC(=N)N)C(=O)N[C@@H](Cc1ccc(O)cc1)C(N)=O)[C@@H](C)O)C(C)C
# B4: Reference 2 (peptide)
# peptide: APEKPGEDASPEELQRYYVSLRHYYHWLTRQRY
# modifications: not fully specified; N-terminal iVal (3-methylbutanoyl); the Lys (4th residue) carries C18DA-gGlu-OEG-OEG; C-terminal amide (-NH2)
# B5: Reference 1 (peptide)
# peptide: Isovaleryl-APEKPEEDASPEEIQQYYVSLRHYYNWLTRQRY-NH2
# modifications: not fully specified (residue 4); printed as iVal-APEK(C18DA-gGlu-OEG-OEG)PEEDASPEEIQQYYVSLRHYYNWLTRQRY-NH2
# Target: T1, human NPY2 receptor
# Assay: radioligand binding competition (125I-PYY(1-36)) on human NPY2R membranes, filtration
# Experimental: The filtration RLB assay was carried out in 96-well plates in a final volume of 100 μl per well. Freeze-dried test peptides were dissolved in 100% dimethyl sulfoxide (DMSO) to stock solutions of 1 mM and serial dilutions were performed in assay buffer (50 mM HEPES, 5 mM MgCl₂, 1 mM CaCl₂, pH 7.4) containing 0.2% ovalbumin. […] Subsequently, 10 μl of human ¹²⁵I-PYY(1-36) (Perkin Elmer) in assay buffer containing 0.2% ovalbumin was added to wells to give a final concentration of 0.02 nM. Next, 80 μL membranes (HTS066M, ChemiSCREEN™ Human Neuropeptide Y2 Receptor Membrane Preparation, CHEMICON) were added to each well to give a final protein concentration of 0.5 μg/well. The plates were sealed and incubated at room temperature for 2 hours in a plate shaker set at 400 rpm. The incubation was stopped by vacuum filtration onto 0.5% poly-ethylene amine (PEI) presoaked GF/C filters using a 96-well FilterMate™ harvester (Perkin Elmer) followed by four washes with 300 μl/well ice-cold wash buffer (50 mM HEPES, 500 mM NaCl, pH7.4). Filter plates were then dried for 60 min at room temperature and the bottom of the plates was sealed with backing tape UniFilter-96. Finally, 50 μl/well scintillation counter cocktail (Microscint20, Packard) was added, and the radioactivity was counted in the Packard TopCount NXT scintillation counter. IC₅₀ values (the half maximal inhibitory concentration of the agonist) were calculated by nonlinear regression analysis of sigmoidal dose-response curves.
row,Binder,Ki [nM]
1,Isovaleryl-APEK([AEEA-AEEA-γGlu-C18 diacid])PEEDATPEELQKYYVSLRHYYNWLTRQRY-NH2 [Compound H],1.96
2,B1,0.46
3,Isovaleryl-APAK([AEEA-AEEA-γGlu-C18 diacid])PEEDATPEELQRYYVSLRHYYNWLTRQRY-NH2 [Compound A],0.66
4,B2,0.31
5,Isovaleryl-APEK([AEEA-AEEA-γGlu-C18 diacid])PEADASPEEIQRYYVSLRHYYNWLTRQRY-NH2 [Compound J],0.24
6,Isovaleryl-APAK([AEEA-AEEA-γGlu-C18 diacid])PEEDASPEEIQRYYVSLRHYYNWLTRQRY-NH2 [Compound E],0.55
7,B3,1.95
8,B4,0.4
9,Isovaleryl-APEK([Ahx-γGlu-C18 diacid])PEADATPEEIQRYYVSLRHYYNWLTRQRY-NH2 [Compound K],1.04
10,B5,0.74
